B1: SETD8 (parent)
chain: FVVEYHGDLIEITDAKKREALYAQ
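Note: lentivirally expressed fusions sorted by FACS into six bins by GFP to DsRed ratio, PSI derived from sequencing read proportions per bin multiplied by bin number.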

Variants of: B1
Assay: protein stability index of a GFP-peptide fusion (GPS, HEK-293T) (PSI 1-6); higher = more stable
Details: c terminus: a fixed tail appended
FVVERHGDLIEITDAKKREALYAQ [Y5R] showed a protein stability index of 2.67. In the case of FVVEAHGDLIEITDAKKREALYAQ [Y5A], the protein stability index is reported as 1.99. Work on FVVEGHGDLIEITDAKKREALYAQ [Y5G] yielded a protein stability index of 2.4. In the case of FVVEQHGDLIEITDAKKREALYAQ [Y5Q], the protein stability index is reported as 2.93. FVVENHGDLIEITDAKKREALYAQ [Y5N] showed a protein stability index of 2.73. Variant FVVEMHGDLIEITDAKKREALYAQ [Y5M] has a protein stability index of 2.11. For FVVEKHGDLIEITDAKKREALYAQ [Y5K], the protein stability index was 2.68. For FVVEVHGDLIEITDAKKREALYAQ [Y5V], the protein stability index was 2.06. Work on FVVEFHGDLIEITDAKKREALYAQ [Y5F] yielded a protein stability index of 1.88. Variant FVVECHGDLIEITDAKKREALYAQ [Y5C] has a protein stability index of 2.05. FVVEDHGDLIEITDAKKREALYAQ [Y5D] gave a protein stability index of 3.2. Variant FVVETHGDLIEITDAKKREALYAQ [Y5T] has a protein stability index of 2.32. FVVEIHGDLIEITDAKKREALYAQ [Y5I] gave a protein stability index of 1.95. For FVVEWHGDLIEITDAKKREALYAQ [Y5W], the protein stability index was 1.43. FVVEEHGDLIEITDAKKREALYAQ [Y5E] showed a protein stability index of 3.86. In the case of FVVESHGDLIEITDAKKREALYAQ [Y5S], the protein stability index is reported as 2.41. With FVVELHGDLIEITDAKKREALYAQ [Y5L] the protein stability index was 1.89. For FVVEHHGDLIEITDAKKREALYAQ [Y5H], the protein stability index was 2.1. With FVVEPHGDLIEITDAKKREALYAQ [Y5P] the protein stability index was 3.03. In the case of FVVEYHGDIIEITDAKKREALYAQ [L9I], the protein stability index is reported as 1.59. In the case of FVVEYHGDEIEITDAKKREALYAQ [L9E], the protein stability index is reported as 2.42. In the case of FVVEYHGDAIEITDAKKREALYAQ [L9A], the protein stability index is reported as 2.31. For FVVEYHGDFIEITDAKKREALYAQ [L9F], the protein stability index was 3.03. FVVEYHGDMIEITDAKKREALYAQ [L9M] showed a protein stability index of 1.46. Variant FVVEYHGDDIEITDAKKREALYAQ [L9D] has a protein stability index of 2.91. FVVEYHGDGIEITDAKKREALYAQ [L9G] showed a protein stability index of 1.59. FVVEYHGDKIEITDAKKREALYAQ [L9K] gave a protein stability index of 2.58. Work on FVVEYHGDHIEITDAKKREALYAQ [L9H] yielded a protein stability index of 1.93. FVVEYHGDCIEITDAKKREALYAQ [L9C] showed a protein stability index of 2.25. FAVEYHGDLIEITDAKKREALYAQ [V2A] showed a protein stability index of 3.83. Work on FLVEYHGDLIEITDAKKREALYAQ [V2L] yielded a protein stability index of 2.13. In the case of FTVEYHGDLIEITDAKKREALYAQ [V2T], the protein stability index is reported as 2.38. With FHVEYHGDLIEITDAKKREALYAQ [V2H] the protein stability index was 3.65. FPVEYHGDLIEITDAKKREALYAQ [V2P] showed a protein stability index of 4.09. FSVEYHGDLIEITDAKKREALYAQ [V2S] showed a protein stability index of 2.97. Variant FNVEYHGDLIEITDAKKREALYAQ [V2N] has a protein stability index of 3.64. FRVEYHGDLIEITDAKKREALYAQ [V2R] gave a protein stability index of 3.02. FFVEYHGDLIEITDAKKREALYAQ [V2F] gave a protein stability index of 2.19. In the case of FEVEYHGDLIEITDAKKREALYAQ [V2E], the protein stability index is reported as 3.73. FCVEYHGDLIEITDAKKREALYAQ [V2C] gave a protein stability index of 3.25. With FKVEYHGDLIEITDAKKREALYAQ [V2K] the protein stability index was 3.6. For FMVEYHGDLIEITDAKKREALYAQ [V2M], the protein stability index was 2.49. FDVEYHGDLIEITDAKKREALYAQ [V2D] showed a protein stability index of 4.2. Variant FQVEYHGDLIEITDAKKREALYAQ [V2Q] has a protein stability index of 3.12. FWVEYHGDLIEITDAKKREALYAQ [V2W] gave a protein stability index of 1.32. FYVEYHGDLIEITDAKKREALYAQ [V2Y] showed a protein stability index of 1.66. FGVEYHGDLIEITDAKKREALYAQ [V2G] gave a protein stability index of 3.95. In the case of FIVEYHGDLIEITDAKKREALYAQ [V2I], the protein stability index is reported as 1.83. With FVVEYHGSLIEITDAKKREALYAQ [D8S] the protein stability index was 2.33. FVVEYHGALIEITDAKKREALYAQ [D8A] gave a protein stability index of 1.65. FVVEYHGNLIEITDAKKREALYAQ [D8N] showed a protein stability index of 1.7. For FVVEYHGLLIEITDAKKREALYAQ [D8L], the protein stability index was 2.85. With FVVEYHGHLIEITDAKKREALYAQ [D8H] the protein stability index was 1.56. FVVEYHGELIEITDAKKREALYAQ [D8E] showed a protein stability index of 2.15. With FVVEYHGYLIEITDAKKREALYAQ [D8Y] the protein stability index was 1.84. For FVVEYHGQLIEITDAKKREALYAQ [D8Q], the protein stability index was 1.59. Work on FVVEYHGCLIEITDAKKREALYAQ [D8C] yielded a protein stability index of 2.01. Variant FVVEYHGMLIEITDAKKREALYAQ [D8M] has a protein stability index of 3.28. In the case of FVVEYHGGLIEITDAKKREALYAQ [D8G], the protein stability index is reported as 2.01. Work on FVVEYHGFLIEITDAKKREALYAQ [D8F] yielded a protein stability index of 2.77. With FVVEYHGPLIEITDAKKREALYAQ [D8P] the protein stability index was 1.83. Variant FVVEYHGVLIEITDAKKREALYAQ [D8V] has a protein stability index of 3.4. FVVEYHGTLIEITDAKKREALYAQ [D8T] showed a protein stability index of 1.45. FVVEYHGKLIEITDAKKREALYAQ [D8K] gave a protein stability index of 1.82. Variant FVVEYAGDLIEITDAKKREALYAQ [H6A] has a protein stability index of 1.9. In the case of FVVEYSGDLIEITDAKKREALYAQ [H6S], the protein stability index is reported as 2.31. Variant FVVEYRGDLIEITDAKKREALYAQ [H6R] has a protein stability index of 2.18. Work on FVVEYEGDLIEITDAKKREALYAQ [H6E] yielded a protein stability index of 2.88. FVVEYKGDLIEITDAKKREALYAQ [H6K] gave a protein stability index of 1.74. Work on FVVEYCGDLIEITDAKKREALYAQ [H6C] yielded a protein stability index of 3.73. FVVEYLGDLIEITDAKKREALYAQ [H6L] showed a protein stability index of 2.02. FVVEYPGDLIEITDAKKREALYAQ [H6P] showed a protein stability index of 2. For FVVEYTGDLIEITDAKKREALYAQ [H6T], the protein stability index was 1.76. Work on FVVEYIGDLIEITDAKKREALYAQ [H6I] yielded a protein stability index of 2.19. In the case of FVVEYYGDLIEITDAKKREALYAQ [H6Y], the protein stability index is reported as 2.16. FVVEYQGDLIEITDAKKREALYAQ [H6Q] gave a protein stability index of 2.06. Variant FVVEYDGDLIEITDAKKREALYAQ [H6D] has a protein stability index of 3.13. FVVEYNGDLIEITDAKKREALYAQ [H6N] gave a protein stability index of 2.2. Variant FVVEYGGDLIEITDAKKREALYAQ [H6G] has a protein stability index of 2.15. With FVVEYFGDLIEITDAKKREALYAQ [H6F] the protein stability index was 2.12. FVVEYWGDLIEITDAKKREALYAQ [H6W] gave a protein stability index of 1.35. FVVEYMGDLIEITDAKKREALYAQ [H6M] showed a protein stability index of 2.04. FVVEYHFDLIEITDAKKREALYAQ [G7F] gave a protein stability index of 2.87. With FVVEYHKDLIEITDAKKREALYAQ [G7K] the protein stability index was 1.66. For FVVEYHNDLIEITDAKKREALYAQ [G7N], the protein stability index was 2.34. With FVVEYHIDLIEITDAKKREALYAQ [G7I] the protein stability index was 3.15. With FVVEYHQDLIEITDAKKREALYAQ [G7Q] the protein stability index was 1.83. Work on FVVEYHCDLIEITDAKKREALYAQ [G7C] yielded a protein stability index of 1.76. With FVVEYHVDLIEITDAKKREALYAQ [G7V] the protein stability index was 1.11. FVVEYHEDLIEITDAKKREALYAQ [G7E] gave a protein stability index of 2.33. Work on FVVEYHDDLIEITDAKKREALYAQ [G7D] yielded a protein stability index of 2.33. Work on FVVEYHTDLIEITDAKKREALYAQ [G7T] yielded a protein stability index of 1.94. FVVEYHMDLIEITDAKKREALYAQ [G7M] showed a protein stability index of 1.08. FVVEYHRDLIEITDAKKREALYAQ [G7R] gave a protein stability index of 2.76.

— the supplement of paper PMC10567573
